In paper PMC5059438:

Molecular target: Ops*, an active form of opsin which is similar to metarhodopsin II (UniProt P02699)

molar mass of functionally reconstituted scramblase, from the fit of p(≥1 scramblase) versus PPR* (dithionite/NBD-PC scramblase assay on proteoliposomes): 90800 g/mol
Substance: Ops*, an active form of opsin which is similar to metarhodopsin II (from UniProt P02699 1-348) (receptor)
